# Measurements from US20250197490A1 (HBM ALPHA THERAPEUTICS, published 2025).
# Positions count from the first letter of the chain named. Like-named read-outs stand apart in the source and are kept apart here.
# T1: corticotropin-releasing hormone (CRH) peptide (human and mouse, UniProt P01143 145-185 (rat entry), not fully specified)
# T1 peptide: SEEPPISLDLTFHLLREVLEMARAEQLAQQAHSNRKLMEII
# T2: biotinylated CRH (human and mouse, UniProt P01143 145-185 (rat entry), not fully specified; biotin; which end is not stated for the result (NT-biotin and CT-biotin forms were used))
# T2 construct: also called biotin-CRH; CRH (NT biotin)
# T2 peptide: T1 peptide
# T3: human UCN1 peptide, biotinylated (human, UniProt P55089 83-122, biotin at N- or C-terminus)
# T3 construct: also called hUCN1 (NT Biotin); hUCN1 (CT Biotin)
# T3 peptide (looked up): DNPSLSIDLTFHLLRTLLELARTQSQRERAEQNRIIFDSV
# T4: N-Terminal CRH peptide (N-terminal region plus central region, CT biotin) (human and mouse, C-terminal K-Biotin)
# T4 construct: also called N-Ter-CRH
# T4 peptide: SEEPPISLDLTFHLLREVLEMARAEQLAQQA
# T5: human UCN2 peptide, biotinylated (human, UniProt Q96RP3 72-109, limits assumed, biotin at N- or C-terminus)
# T5 construct: also called hUCN2 (NT Biotin); hUCN2 (CT Biotin)
# T5 peptide (looked up): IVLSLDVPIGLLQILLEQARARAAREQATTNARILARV
# T6: human UCN3 peptide, biotinylated (human, UniProt Q969E3 120-157, biotin at N- or C-terminus)
# T6 construct: also called hUCN3 (NT Biotin); hUCN3 (CT Biotin)
# T6 peptide (looked up): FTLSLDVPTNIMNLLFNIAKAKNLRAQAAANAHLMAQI
# T7: CRH (Central Region, NT Biotin) (N-terminal Biotin-K; C-terminal NH2)
# T7 construct: also called Central CRH
# T7 peptide: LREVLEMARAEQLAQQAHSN
# T8: CRH (Central Region, CT Biotin) (C-terminal K-Biotin)
# T8 construct: also called Central CRH
# T8 peptide: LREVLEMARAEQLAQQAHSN
# T9: CRH (C-Terminal Region, NT Biotin) (N-terminal Biotin-K; C-terminal NH2)
# T9 construct: central region plus C-terminal region of CRH; also called C-Terminal CRH; C-Ter-CRH
# T9 peptide: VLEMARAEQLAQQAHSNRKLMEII
# B1: PR302309-18 (antibody, human IgG1, kappa, V domains shown)
# VH: QVQLVQSGAEVKKPGASVKVSCKASGYTFTNYGMNWVRQAPGQRLEWMGWINTYTGEPIYTDDFKGRVTITRDTSASTAYMELSSLRSEDTAVYYCARSTMITTGGVFAYWGQGTLVTVSS
# VL: DVVMTQSPLSLPVTLGQPASISCRSSQTIVHSDGNTYLEWYQQRPGQSPRLLIYKVSNRFSGVPDRFSGSGSGTDFTLKISRVEAEDLGVYYCFQGSHVPWTFGGGTKVEIKR
# B2: PR302341-34 (antibody, human IgG1, kappa, V domains shown)
# VH: QVQLVQSGAEVKKPGASVKVSCKASGYTFTDYFMKWVRQAPGQGLEWMGVINPNQGDIFYNQKFKGRVTMTVDKSISTAYMELSRLRSDDTAVYYCARGTDRALFAYWGQGTLVTVSS
# VL: B1 VL with S26G, T28S, G34A, V99I
# B3: PR302341-60 (antibody, human IgG1, kappa, V domains shown)
# VH: B2 VH with G44R, M70I, V72R, K74T, I76A, R85S, D89E
# VL: B1 VL with S26G, T28S, G34A, V99I
# B4: PR302341-55 (antibody, human IgG1, kappa, V domains shown)
# VH: B2 VH with G44R, Q55N, G56A, M70I, V72R, K74T, I76A, R85S, D89E
# VL: B1 VL with S26G, T28S, V99I
# B5: PR302341-28 (antibody, human IgG1, kappa, V domains shown)
# VH: B2 VH
# VL: B1 VL with S26G, T28S, V99I
# B6: PR302341-48 (antibody, human IgG1, kappa, V domains shown)
# VH: B2 VH with I76T, R85S, D89E
# VL: B1 VL with S7T, L11S, S26G, T28S, G34A, S48P, S72A, V99I
# B7: PR302324 (antibody, human IgG1, kappa, V domains shown)
# VH: EVQLQQSGPELVKPGASVKMSCKASGYTFTDYFMKWVKQSHGGSLEWIGVISPNNGDTFYNQKFKGKATLTVDKSSSTAFMQLNSLTSEDSAVYSCARGTDRALFAYWGQGTLVTVSA
# VL: DVLMTQTPLSLPVSLGDQASISCRSSQSIVHSDGNTYLEWYLQRPGQSPKLLIYKVSNRFSGVPDRFSGSGSGTDFTLKISRVGAEDLGVYYCFQGSHIPWTFGGGTKLEVKR
# B8: PR302312 (antibody, human IgG1, kappa, V domains shown)
# VH: B7 VH with V37M, G43K, S52N, K63N, F80Y, S95Y, A97T, D101A
# VL: B7 VL with I99V
# B9: PR302328 (antibody, human IgG1, kappa, V domains shown)
# VH: EVKLVESGGGLVKPGGSLKLSCAASGFTFSSYAMSWVRQTPEKRLEWVASIRSGGTTYYPDSVKGRFTISRDNARNILYLQMSSLRSEDTAIYYCTRGIDWGQGTLVTVSA
# VL: NIVMTQTPKFLLVSAGDRVTITCKASQSVNNDVAWYQQKPGQSPKLLIYYASNRYTGVPDRFTGSGYGTDFTFTISTVQAEDLAVYFCQQDYSSWTFGGGTKLEIKR
# B10: PR302339 (antibody, human IgG1, kappa, V domains shown)
# VH: B9 VH with M34L
# VL: B9 VL
# B11: PR302331 (antibody, human IgG1, kappa, V domains shown)
# VH: B9 VH with T40S
# VL: B9 VL with T22A
# B12: PR302335 (antibody, human IgG1, kappa, V domains shown)
# VH: DVQLVESGGGLVQPGGSRKLSCAASGFTFSSFGMHWVRQAPEKGLEWVAYISSGSTIFYYADTVKGRFTISRDNPKNTLFLQMTSLRSEDTAMYYCARDITTATFAFWGQGTLVTVSA
# VL: DVVLTQTPLSLPVSLGDQVSISCRSSQNLLHNNGNTYLHWYLQKPGQSPRLLIYKVSNRFSGVPDRFSGSGSGTDFTLKITRVEAEDLGVYFCSQSTHIPWTFGGGTKLEIKR
# B13: PR302333 (antibody, human IgG1, kappa, V domains shown)
# VH: QIQLVQSGPELKKPGETVKISCKASGYTFTNFGMNWVKQAPGKVLKWMGWINTYTGEPIYADDFKGRFAFSLETSASAAYLQINNLKNEDTATYFCSRSTMITTGGVFAYWGQGTLVTVSA
# VL: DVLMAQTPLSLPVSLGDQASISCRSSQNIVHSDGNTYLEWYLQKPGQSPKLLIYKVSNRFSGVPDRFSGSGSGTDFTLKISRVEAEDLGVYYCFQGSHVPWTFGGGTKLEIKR
# B14: PR302332 (antibody, human IgG1, kappa, V domains shown)
# VH: B13 VH with N35H, D62A, A78T
# VL: B7 VL with T5A, R44K, G84E, I99V, V111I
# B15: PR006153 (antibody, human IgG1, kappa, V domains shown)
# VH: EVQLVESGGVLVQPGGSLRLSCAASGFTFSSYWMTWVRQAPGKGLEWVANIKQDSSEKYYVDSVKGRFTISRDNAKNSLFLQMNSLRAEDTAVYYCARTLIFDYWGQGTLVTVSS
# VL: DIVMTQSPLSLPVTPGEPASISCRSSQSLLHSTGYSSLEWYLQKPGQSPQLLIYLGSNRASGVPDRFSGSGSGTDFTLKISRVEAEDVGIYYCMQTLQTPITFGQGTRLEIKR
# Experiments:
# [1] = molecular target: T1, corticotropin-releasing hormone (CRH) …; experiment: cell-based or functional assay
# [2] = molecular target: T2, biotinylated CRH; experiment: ELISA, CRH (NT biotin)
# Description: (§1) Streptavidin (Thermo, Cat: 21125) was diluted in PBS to a concentration of 2 μg/ml. 100 μl of diluted streptavidin was added per well to ELISA microplates, and the plates were incubated overnight at 4° C. […] Subsequently, plates were washed and incubated with HRP-conjugated goat anti-human IgG (H+L) antibody (Jackson, Cat: 109-035-088) at 37° C. for 1 hour. 100 μL of 3,3′,5,5′-tetramethylbenzidine (TMB) substrate (Biopanda, Cat: TMB-S-003) was added, and the plates were incubated at room temperature for 15 minutes. 100 μL of ELISA stopping solution (Solarbio, Cat #: C1058) was added to terminate the reaction, and the optical density at 450 nm (OD450 nm) was determined by an ELISA plate reader (Molecular Devices, Spectra max 384 plus).
# [3] = molecular target: T2, biotinylated CRH; experiment: ELISA, CRH (CT biotin)
# Description: as §1
# [4] = molecular target: T3, human UCN1 peptide, biotinylated; experiment: ELISA, hUCN1 (NT biotin)
# Description: as §1
# [5] = molecular target: T4, N-Terminal CRH peptide (N-terminal …); experiment: ELISA, N-Ter-CRH (CT-biotin) on streptavidin
# Description: as §1
# [6] = molecular target: T5, human UCN2 peptide, biotinylated; experiment: ELISA, hUCN2 (NT biotin) and (CT biotin)
# Description: (§2) Streptavidin (Thermo, Cat: 21125) was diluted in PBS with a concentration of 2 μg/mL. 100 μL of diluted streptavidin was added per well to ELISA microplates, and the plates were incubated overnight at 4° C. Plates were blocked with ELISA blocking solution (containing 2% w/v BSA, 0.05% (v/v) Tween-20, pH 7.4 PBS buffer) at 37° C. for 1 hour, and then incubated with either 1 μg/mL hUCN1 (NT Biotin), hUCN1 (CT Biotin), hUCN2 (NT Biotin), hUCN2 (CT Biotin), hUCN3 (NT Biotin), or hUCN3 (CT Biotin) for 1 hour at 37° C. […] Plates were subsequently washed and incubated with HRP-conjugated goat anti-human IgG (H+L) antibody (Jackson, Cat: 109-035-088) at 37° C. for 1 hour. 100 μl of TMB Substrate (Biopanda, Cat: TMB-S-003) was added, and the plates were incubated at room temperature for 15 minutes. 100 μL of ELISA stopping solution (Solarbio, Cat #: C1058) was then added to terminate the reaction, and the OD450 nm was determined by an ELISA plate reader (Molecular Devices, Spectra max 384 plus).
# [7] = molecular target: T6, human UCN3 peptide, biotinylated; experiment: ELISA, hUCN3 (NT biotin) and (CT biotin)
# Description: as §2
# [8] = molecular target: T7, CRH (Central Region, NT Biotin); experiment: ELISA, CRH central region peptide (NT biotin)
# Description: as §1
# [9] = molecular target: T8, CRH (Central Region, CT Biotin); experiment: ELISA, CRH central region peptide (CT biotin)
# Description: as §1
# [10] = molecular target: T9, CRH (C-Terminal Region, NT Biotin); experiment: ELISA, CRH C-terminal region peptide (NT biotin)
# Description: as §1
# [11] = molecular target: T3, human UCN1 peptide, biotinylated; experiment: ELISA, hUCN1 (CT biotin)
# Description: as §1
# [12] = molecular target: T3, human UCN1 peptide, biotinylated; experiment: ELISA, hUCN1 (NT biotin) and (CT biotin), mAb at 100 and 10 nM
# Description: as §2
# [13] = molecular target: T2, biotinylated CRH; experiment: ELISA, CRH (NT biotin)
# [14] = molecular target: T2, biotinylated CRH; experiment: ELISA, CRH (NT biotin)
# Description: as §1
# These potential PTMs were mutated individually either in HCDR2 alone, in LCDR1 alone, or in various combinations of mutations, as detailed in Table 3. […] Most ΔPTM variants retained functional activities.
binder,measurement,setting,value
B1,hCRHR1-Luc 0.5 nM CRH IC50,[1],1.73 nM
same,EC50 (read off the curve),[2],~0.03 nM
same,EC50 (read off the curve),[3],~0.03 nM
same,EC50 (read off the curve),[4],~0.1 nM
same,EC50,[5],0.028 nM
same,binding result,[6],no binding (tested: 100 nM)
same,binding result,[7],no binding (tested: 100 nM)
same,binding result,[8],no binding (tested: 100 nM)
same,binding result,[9],no binding (tested: 100 nM)
same,binding result,[10],no binding (tested: 100 nM)
B2,EC50 (read off the curve),[2],~0.03 nM
same,EC50 (read off the curve),[3],~0.03 nM
same,EC50 (read off the curve),[4],~0.02 nM
same,EC50 (read off the curve),[11],~0.03 nM
same,binding result,[6],no binding (tested: 100 nM)
same,binding result,[8],no binding (tested: 100 nM)
same,binding result,[9],no binding (tested: 100 nM)
same,binding result,[10],no binding (tested: 100 nM)
B3,binding result,[6],no binding (tested: 100 nM)
same,binding result,[12],binds
B4,binding result,[6],no binding (tested: 100 nM)
same,binding result,[12],binds
B5,binding result,[6],no binding (tested: 100 nM)
same,binding result,[12],binds
B6,binding result,[6],no binding (tested: 100 nM)
same,binding result,[12],binds
B7,binding result,[13],binds
B8,binding result,[13],binds
B9,binding result,[13],binds
B10,binding result,[13],binds
B11,binding result,[13],binds
B12,binding result,[13],binds
B13,binding result,[13],binds
B14,binding result,[13],binds
B15,binding result,[14],binds
